# Measured values: patent US20200332005A1 (I MAB, published 2020)
# T1: recombinant human CD73 protein (human, UniProt P21589 27-547)
# T1 sequence: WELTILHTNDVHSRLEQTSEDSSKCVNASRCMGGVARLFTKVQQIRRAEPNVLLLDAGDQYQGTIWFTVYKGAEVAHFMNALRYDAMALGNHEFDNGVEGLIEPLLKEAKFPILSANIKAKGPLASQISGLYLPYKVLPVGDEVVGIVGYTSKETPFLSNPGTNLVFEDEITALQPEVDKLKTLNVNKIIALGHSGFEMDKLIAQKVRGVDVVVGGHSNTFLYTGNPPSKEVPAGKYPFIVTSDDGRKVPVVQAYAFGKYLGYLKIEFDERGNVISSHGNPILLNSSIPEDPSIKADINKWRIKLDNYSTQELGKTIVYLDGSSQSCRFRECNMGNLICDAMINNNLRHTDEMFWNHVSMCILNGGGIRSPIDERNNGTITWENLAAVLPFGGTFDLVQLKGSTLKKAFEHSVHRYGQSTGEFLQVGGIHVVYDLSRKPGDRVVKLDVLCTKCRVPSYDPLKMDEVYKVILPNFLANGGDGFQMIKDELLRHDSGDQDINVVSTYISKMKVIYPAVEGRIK
# T2: human CD73 on the cell surface (human, UniProt P21589 27-549)
# T2 sequence: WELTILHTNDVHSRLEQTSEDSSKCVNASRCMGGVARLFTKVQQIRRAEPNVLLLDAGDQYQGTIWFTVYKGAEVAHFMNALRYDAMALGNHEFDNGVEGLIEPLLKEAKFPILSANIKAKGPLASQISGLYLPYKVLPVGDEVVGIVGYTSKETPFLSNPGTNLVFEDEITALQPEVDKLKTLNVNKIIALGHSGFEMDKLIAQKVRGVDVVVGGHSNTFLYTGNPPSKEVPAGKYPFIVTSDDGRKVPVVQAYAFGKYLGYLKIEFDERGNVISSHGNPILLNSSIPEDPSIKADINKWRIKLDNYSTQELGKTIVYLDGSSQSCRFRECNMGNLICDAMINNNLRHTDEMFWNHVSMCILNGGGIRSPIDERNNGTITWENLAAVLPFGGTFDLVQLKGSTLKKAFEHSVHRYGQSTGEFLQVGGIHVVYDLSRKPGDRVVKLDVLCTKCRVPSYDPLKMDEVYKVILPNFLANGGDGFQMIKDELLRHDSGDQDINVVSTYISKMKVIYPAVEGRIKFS
# T3: Y345A
# T3 construct: also called CD73 variant Y345A
# T3 CD73 subunit: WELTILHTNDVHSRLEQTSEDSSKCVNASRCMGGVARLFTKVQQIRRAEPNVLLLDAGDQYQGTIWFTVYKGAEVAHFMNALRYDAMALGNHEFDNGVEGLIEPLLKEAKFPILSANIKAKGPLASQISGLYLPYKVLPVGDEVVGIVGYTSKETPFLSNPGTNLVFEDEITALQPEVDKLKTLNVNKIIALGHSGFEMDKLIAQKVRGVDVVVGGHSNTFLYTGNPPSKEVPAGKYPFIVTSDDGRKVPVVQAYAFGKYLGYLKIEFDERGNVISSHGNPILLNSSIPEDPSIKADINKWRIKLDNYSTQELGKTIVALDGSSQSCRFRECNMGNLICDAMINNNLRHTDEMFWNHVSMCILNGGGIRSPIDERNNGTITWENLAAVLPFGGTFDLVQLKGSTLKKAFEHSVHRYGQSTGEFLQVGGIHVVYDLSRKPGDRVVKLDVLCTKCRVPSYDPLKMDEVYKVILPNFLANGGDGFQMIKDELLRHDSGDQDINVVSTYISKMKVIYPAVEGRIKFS
# T4: D399A
# T4 construct: also called CD73 variant D399A
# T4 CD73 subunit: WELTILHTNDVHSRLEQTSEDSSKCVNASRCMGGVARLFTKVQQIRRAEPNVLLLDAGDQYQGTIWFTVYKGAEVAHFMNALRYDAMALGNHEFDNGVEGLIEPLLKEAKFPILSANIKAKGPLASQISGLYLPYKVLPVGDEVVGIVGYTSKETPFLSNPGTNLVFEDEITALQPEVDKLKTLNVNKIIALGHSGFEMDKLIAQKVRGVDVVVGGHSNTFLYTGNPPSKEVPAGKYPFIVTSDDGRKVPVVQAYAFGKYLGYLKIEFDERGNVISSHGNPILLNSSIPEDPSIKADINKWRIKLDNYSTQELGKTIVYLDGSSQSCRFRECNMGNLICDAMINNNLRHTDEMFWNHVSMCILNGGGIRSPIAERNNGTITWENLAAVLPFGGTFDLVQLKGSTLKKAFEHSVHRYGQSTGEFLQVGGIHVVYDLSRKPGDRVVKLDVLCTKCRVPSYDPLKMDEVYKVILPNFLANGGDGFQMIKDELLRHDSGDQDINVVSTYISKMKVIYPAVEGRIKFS
# T5: E400A
# T5 construct: also called CD73 variant E400A
# T5 CD73 subunit: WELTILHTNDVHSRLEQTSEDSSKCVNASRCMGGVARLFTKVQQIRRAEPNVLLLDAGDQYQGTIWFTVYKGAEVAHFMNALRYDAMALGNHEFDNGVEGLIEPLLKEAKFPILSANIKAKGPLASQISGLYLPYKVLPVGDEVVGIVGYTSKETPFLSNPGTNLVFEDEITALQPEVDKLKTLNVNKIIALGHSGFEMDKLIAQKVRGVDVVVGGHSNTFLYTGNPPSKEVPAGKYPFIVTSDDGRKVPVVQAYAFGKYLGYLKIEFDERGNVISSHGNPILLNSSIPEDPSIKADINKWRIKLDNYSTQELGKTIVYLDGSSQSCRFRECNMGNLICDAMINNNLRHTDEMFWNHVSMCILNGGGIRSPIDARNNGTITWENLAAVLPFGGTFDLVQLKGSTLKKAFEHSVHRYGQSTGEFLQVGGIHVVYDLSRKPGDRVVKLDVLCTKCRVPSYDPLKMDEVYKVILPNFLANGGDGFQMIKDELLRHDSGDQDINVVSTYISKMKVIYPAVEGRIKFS
# T6: R401A
# T6 construct: also called CD73 variant R401A
# T6 CD73 subunit: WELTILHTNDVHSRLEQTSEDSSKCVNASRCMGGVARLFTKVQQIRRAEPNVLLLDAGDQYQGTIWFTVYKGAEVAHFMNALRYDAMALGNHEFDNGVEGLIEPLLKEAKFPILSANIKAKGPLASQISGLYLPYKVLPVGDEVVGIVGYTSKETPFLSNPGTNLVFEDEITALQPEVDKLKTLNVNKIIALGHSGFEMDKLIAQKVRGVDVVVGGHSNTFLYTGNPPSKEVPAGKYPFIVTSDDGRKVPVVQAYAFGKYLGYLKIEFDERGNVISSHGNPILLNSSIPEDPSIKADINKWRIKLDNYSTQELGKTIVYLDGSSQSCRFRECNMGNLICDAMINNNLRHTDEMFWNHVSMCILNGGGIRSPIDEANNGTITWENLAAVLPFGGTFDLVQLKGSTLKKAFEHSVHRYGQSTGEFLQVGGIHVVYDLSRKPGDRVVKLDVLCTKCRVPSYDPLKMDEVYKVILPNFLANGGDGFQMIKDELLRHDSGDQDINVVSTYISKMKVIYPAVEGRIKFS
# Tests used:
# [1] = target: T1, recombinant human CD73 protein; assay: cell-based or functional assay
# [2] = target: T2, human CD73 on the cell surface; assay: cell-based or functional assay
# [3] = target: T2, human CD73 on the cell surface; assay: flow cytometry on SK-OV-3 cells
# Experimental: Binding was measured using an FACSCanto (Becton-Dickinson), and the results are presented in FIG. 8 (see also the table below).
# [4] = target: T1, recombinant human CD73 protein; assay: SPR, Biacore T200, antibody captured by anti-human Fc IgG, antigen as analyte, 1:1 model, 25 C
# Experimental: For the binding assay, the Biacore T200 system was used through human antibody capture approach. The anti-human Fc lgG were immobilized on CMS sensor chip according to the manufactory's instruction. The test antibody was injected and captured by the immobilized anti-human Fc lgG. And then serial concentrations of antigen was individually injected, and the binding profile was recorded for each concentration antigen analyte, respectively. The assay system was regenerated by injection of 10 mM Glycine-HCl pH 1.5 for 30 seconds. The running buffer was HBS-EP+(10 mM HEPES, pH 7.4, 150 mM NaCl, 3 mM EDTA and 0.05% P20). The assay temperature was 25° C., and the association and dissociation time were 180 and 600 seconds, respectively.
# [5] = target: T3, Y345A; assay: high-throughput flow cytometry on cells expressing the CD73 variant
# Experimental: (§1) To identify the epitope of Hu101-28, a library of clones of single amino acid-mutated CD73 variants was made. Binding of Hu101-28 Fab to each variant in the library was determined, in duplicate, by high-throughput flow cytometry. For each CD73 variant, the mean binding value was plotted as a function of CD73 expression (represented by control reactivity) on chart and critical residues were identified from the chart. Critical residues for CD73 Fab binding (outlined in red) were identified as those whose mutations were negative for test Fab binding, but positive for the control MAbs. The mean binding reactivities (and ranges) are listed for the critical residues identified in the screens, and are shown in FIG. 23.
# [6] = target: T4, D399A; assay: as above
# Experimental: as §1
# [7] = target: T5, E400A; assay: as above
# Experimental: as §1
# [8] = target: T6, R401A; assay: as above
# Experimental: as §1
# [9] = target: T3, Y345A; assay: high-throughput flow cytometry on cells expressing the CD73 variant, in duplicate; mean (range)
# Experimental: as §1
# [10] = target: T4, D399A; assay: as above
# Experimental: as §1
# [11] = target: T5, E400A; assay: as above
# Experimental: as §1
# [12] = target: T6, R401A; assay: as above
# Experimental: as §1
Binder,"IC50 (nM), inhibition of recombinant CD73 enzymatic activity [1]","IC50 (nM), inhibition of CD73 enzymatic activity on SK-OV-3 cells [2]",EC50 [3],Kd [4],koff [4],kon [4],binding result [5],binding result [6],binding result [7],binding result [8],Binding Reactivity (% WT) [9],Binding Reactivity (% WT) [10],Binding Reactivity (% WT) [11],Binding Reactivity (% WT) [12]
"Hu101-25 (antibody, V domains shown, also called humanized anti-CD73 antibody Hu101-25) VH: EVQLQESGPGLVKPSETLSLTCAVSGYSISSGYYWNWIRQPPGKGLEWIGYINYGGSNGYNPSLKSRVTISRDTSKNQFSLKLSSVTAADTAVYYCARDYDAYYEALDDWGQGTTVTVSS VL: EIVLSQSPATLSLSPGERATLSCRASSRVNYMHWYQQKPGQSPRPWISATSNLASGVPARFSGSGSGTSYTLTISSLEPEDFAVYYCQQWSSNPPTFGGGTKVEIK",4.72 nM,2.98 nM,2.38 nM,0.747 nM,5.51e-05 s⁻¹,73700 M⁻¹ s⁻¹,,,,,,,,
"Hu101-28 Fab (Fab, V domains shown, also called test Fab; CD73 Fab) VH: EVQLQESGPGLVKPSETLSLTCAVSGYSITSGYYWNWIRQPPGKKLEWMGYINYGGSNGYNPSLKSRITISRDTSKNQFSLKLSSVTAADTAVYYCARDYDAYYEALDDWGQGTTVTVSS VL: EIVLSQSPATLSLSPGERATLSCRASSRVNYMHWYQQKPGQSPRPWISATSNLASGVPARFSGSGSGTSYTLTISSLEPEDFAVYYCQQWSSNPPTFGGGTKVEIK",,,,,,,no binding,no binding,no binding,no binding,2.7 % WT,1.8 % WT,3.6 % WT,1.1 % WT
